Eight molecules from patent publication US20250171562A1 can be followed below.

As usually defined, the EC50 is the concentration that produces a half-maximal response.

B1: CIgG4B2A1(G4S)1 (Fc fusion)
chain 1: GPPCPPCPAPEFLGGPSVFLFPPKPKDTLMISRTPEVTCVVVDVSQEDPEVQFNWYVDGVEVHNAKTKPREEQFNSTYRVVSVLTVLHQDWLNGKEYKCKVSNKGLPSSIEKTISKAKGQPREPQVYTLPPCQEEMTKNQVSLWCLVKGFYPSDIAVEWESNGQPENNYKTTPPVLDSDGSFFLYSRLTVDKSRWQEGNVFSCSVMHEALHNHYTQKSLSLSLGKGGGGSQVQLVESGGGLVQAGGSLRLSCAVFGSTFSNNVADWYRQAPGKQRELVARISASGATREYGDSVKGRFTISRDDAKNTMYLQMNNLKPEDTAVYRCHKIEWEDLSRKDYWGQGTQVTVS
chain 2: GPPCPPCPAPEFLGGPSVFLFPPKPKDTLMISRTPEVTCVVVDVSQEDPEVQFNWYVDGVEVHNAKTKPREEQFNSTYRVVSVLTVLHQDWLNGKEYKCKVSNKGLPSSIEKTISKAKGQPREPQVCTLPPSQEEMTKNQVSLSCAVKGFYPSDIAVEWESNGQPENNYKTTPPVLDSDGSFFLVSRLTVDKSRWQEGNVFSCSVMHEALHNHYTQKSLSLSLGKGGGGSEVQLLESGGGLVQPGGSLRLSCAASGFTFGNYDMAWVRQAPGKRPEWVSSIDTGGDITHYADSVKGRFTISRDNAKNTLYLQMNSLRPEDTAVYWCATDEEYALGPNEFDYYGQGTLVTVSS
B2: CIgG4B2A1(G4S)2 (Fc fusion)
chain 1: GPPCPPCPAPEFLGGPSVFLFPPKPKDTLMISRTPEVTCVVVDVSQEDPEVQFNWYVDGVEVHNAKTKPREEQFNSTYRVVSVLTVLHQDWLNGKEYKCKVSNKGLPSSIEKTISKAKGQPREPQVYTLPPCQEEMTKNQVSLWCLVKGFYPSDIAVEWESNGQPENNYKTTPPVLDSDGSFFLYSRLTVDKSRWQEGNVFSCSVMHEALHNHYTQKSLSLSLGKGGGGSGGGGSQVQLVESGGGLVQAGGSLRLSCAVFGSTFSNNVADWYRQAPGKQRELVARISASGATREYGDSVKGRFTISRDDAKNTMYLQMNNLKPEDTAVYRCHKIEWEDLSRKDYWGQGTQVTVS
chain 2: GPPCPPCPAPEFLGGPSVFLFPPKPKDTLMISRTPEVTCVVVDVSQEDPEVQFNWYVDGVEVHNAKTKPREEQFNSTYRVVSVLTVLHQDWLNGKEYKCKVSNKGLPSSIEKTISKAKGQPREPQVCTLPPSQEEMTKNQVSLSCAVKGFYPSDIAVEWESNGQPENNYKTTPPVLDSDGSFFLVSRLTVDKSRWQEGNVFSCSVMHEALHNHYTQKSLSLSLGKGGGGSGGGGSEVQLLESGGGLVQPGGSLRLSCAASGFTFGNYDMAWVRQAPGKRPEWVSSIDTGGDITHYADSVKGRFTISRDNAKNTLYLQMNSLRPEDTAVYWCATDEEYALGPNEFDYYGQGTLVTVSS
B3: NIgG4D1A1(G4S)3 (Fc fusion)
chain 1: DVQLQESGGGLVQAGGSLRLSCAASGLTFSRCDMGWFRQAPGKEREFVARISANGASTHYADFVKGRFTISRDNAKNTVYLQMNYLKPEDTAVYICAAARVPVTWQLYDYWGQGTQVTVSGGGGSGGGGSGGGGSGPPCPPCPAPEFLGGPSVFLFPPKPKDTLMISRTPEVTCVVVDVSQEDPEVQFNWYVDGVEVHNAKTKPREEQFNSTYRVVSVLTVLHQDWLNGKEYKCKVSNKGLPSSIEKTISKAKGQPREPQVYTLPPCQEEMTKNQVSLWCLVKGFYPSDIAVEWESNGQPENNYKTTPPVLDSDGSFFLYSRLTVDKSRWQEGNVFSCSVMHEALHNHYTQKSLSLSLGK
chain 2: EVQLLESGGGLVQPGGSLRLSCAASGFTFGNYDMAWVRQAPGKRPEWVSSIDTGGDITHYADSVKGRFTISRDNAKNTLYLQMNSLRPEDTAVYWCATDEEYALGPNEFDYYGQGTLVTVSSGGGGSGGGGSGGGGSGPPCPPCPAPEFLGGPSVFLFPPKPKDTLMISRTPEVTCVVVDVSQEDPEVQFNWYVDGVEVHNAKTKPREEQFNSTYRVVSVLTVLHQDWLNGKEYKCKVSNKGLPSSIEKTISKAKGQPREPQVCTLPPSQEEMTKNQVSLSCAVKGFYPSDIAVEWESNGQPENNYKTTPPVLDSDGSFFLVSRLTVDKSRWQEGNVFSCSVMHEALHNHYTQKSLSLSLGK
B4: CIgG4B2A1(RS) (Fc fusion)
chain 1: GPPCPPCPAPEFLGGPSVFLFPPKPKDTLMISRTPEVTCVVVDVSQEDPEVQFNWYVDGVEVHNAKTKPREEQFNSTYRVVSVLTVLHQDWLNGKEYKCKVSNKGLPSSIEKTISKAKGQPREPQVYTLPPCQEEMTKNQVSLWCLVKGFYPSDIAVEWESNGQPENNYKTTPPVLDSDGSFFLYSRLTVDKSRWQEGNVFSCSVMHEALHNHYTQKSLSLSLGKRSQVQLVESGGGLVQAGGSLRLSCAVFGSTFSNNVADWYRQAPGKQRELVARISASGATREYGDSVKGRFTISRDDAKNTMYLQMNNLKPEDTAVYRCHKIEWEDLSRKDYWGQGTQVTVS
chain 2: GPPCPPCPAPEFLGGPSVFLFPPKPKDTLMISRTPEVTCVVVDVSQEDPEVQFNWYVDGVEVHNAKTKPREEQFNSTYRVVSVLTVLHQDWLNGKEYKCKVSNKGLPSSIEKTISKAKGQPREPQVCTLPPSQEEMTKNQVSLSCAVKGFYPSDIAVEWESNGQPENNYKTTPPVLDSDGSFFLVSRLTVDKSRWQEGNVFSCSVMHEALHNHYTQKSLSLSLGKRSEVQLLESGGGLVQPGGSLRLSCAASGFTFGNYDMAWVRQAPGKRPEWVSSIDTGGDITHYADSVKGRFTISRDNAKNTLYLQMNSLRPEDTAVYWCATDEEYALGPNEFDYYGQGTLVTVSS
B5: NIgG4D1A1(G4S)1 (Fc fusion)
chain 1: DVQLQESGGGLVQAGGSLRLSCAASGLTFSRCDMGWFRQAPGKEREFVARISANGASTHYADFVKGRFTISRDNAKNTVYLQMNYLKPEDTAVYICAAARVPVTWQLYDYWGQGTQVTVSGGGGSGPPCPPCPAPEFLGGPSVFLFPPKPKDTLMISRTPEVTCVVVDVSQEDPEVQFNWYVDGVEVHNAKTKPREEQFNSTYRVVSVLTVLHQDWLNGKEYKCKVSNKGLPSSIEKTISKAKGQPREPQVYTLPPCQEEMTKNQVSLWCLVKGFYPSDIAVEWESNGQPENNYKTTPPVLDSDGSFFLYSRLTVDKSRWQEGNVFSCSVMHEALHNHYTQKSLSLSLGK
chain 2: EVQLLESGGGLVQPGGSLRLSCAASGFTFGNYDMAWVRQAPGKRPEWVSSIDTGGDITHYADSVKGRFTISRDNAKNTLYLQMNSLRPEDTAVYWCATDEEYALGPNEFDYYGQGTLVTVSSGGGGSGPPCPPCPAPEFLGGPSVFLFPPKPKDTLMISRTPEVTCVVVDVSQEDPEVQFNWYVDGVEVHNAKTKPREEQFNSTYRVVSVLTVLHQDWLNGKEYKCKVSNKGLPSSIEKTISKAKGQPREPQVCTLPPSQEEMTKNQVSLSCAVKGFYPSDIAVEWESNGQPENNYKTTPPVLDSDGSFFLVSRLTVDKSRWQEGNVFSCSVMHEALHNHYTQKSLSLSLGK
B6: NIgG4D1A1(G4S)2 (Fc fusion)
chain 1: DVQLQESGGGLVQAGGSLRLSCAASGLTFSRCDMGWFRQAPGKEREFVARISANGASTHYADFVKGRFTISRDNAKNTVYLQMNYLKPEDTAVYICAAARVPVTWQLYDYWGQGTQVTVSGGGGSGGGGSGPPCPPCPAPEFLGGPSVFLFPPKPKDTLMISRTPEVTCVVVDVSQEDPEVQFNWYVDGVEVHNAKTKPREEQFNSTYRVVSVLTVLHQDWLNGKEYKCKVSNKGLPSSIEKTISKAKGQPREPQVYTLPPCQEEMTKNQVSLWCLVKGFYPSDIAVEWESNGQPENNYKTTPPVLDSDGSFFLYSRLTVDKSRWQEGNVFSCSVMHEALHNHYTQKSLSLSLGK
chain 2: EVQLLESGGGLVQPGGSLRLSCAASGFTFGNYDMAWVRQAPGKRPEWVSSIDTGGDITHYADSVKGRFTISRDNAKNTLYLQMNSLRPEDTAVYWCATDEEYALGPNEFDYYGQGTLVTVSSGGGGSGGGGSGPPCPPCPAPEFLGGPSVFLFPPKPKDTLMISRTPEVTCVVVDVSQEDPEVQFNWYVDGVEVHNAKTKPREEQFNSTYRVVSVLTVLHQDWLNGKEYKCKVSNKGLPSSIEKTISKAKGQPREPQVCTLPPSQEEMTKNQVSLSCAVKGFYPSDIAVEWESNGQPENNYKTTPPVLDSDGSFFLVSRLTVDKSRWQEGNVFSCSVMHEALHNHYTQKSLSLSLGK
B7: CIgG4B2A1(G4S)3 (Fc fusion)
chain 1: GPPCPPCPAPEFLGGPSVFLFPPKPKDTLMISRTPEVTCVVVDVSQEDPEVQFNWYVDGVEVHNAKTKPREEQFNSTYRVVSVLTVLHQDWLNGKEYKCKVSNKGLPSSIEKTISKAKGQPREPQVYTLPPCQEEMTKNQVSLWCLVKGFYPSDIAVEWESNGQPENNYKTTPPVLDSDGSFFLYSRLTVDKSRWQEGNVFSCSVMHEALHNHYTQKSLSLSLGKGGGGSGGGGSGGGGSQVQLVESGGGLVQAGGSLRLSCAVFGSTFSNNVADWYRQAPGKQRELVARISASGATREYGDSVKGRFTISRDDAKNTMYLQMNNLKPEDTAVYRCHKIEWEDLSRKDYWGQGTQVTVS
chain 2: GPPCPPCPAPEFLGGPSVFLFPPKPKDTLMISRTPEVTCVVVDVSQEDPEVQFNWYVDGVEVHNAKTKPREEQFNSTYRVVSVLTVLHQDWLNGKEYKCKVSNKGLPSSIEKTISKAKGQPREPQVCTLPPSQEEMTKNQVSLSCAVKGFYPSDIAVEWESNGQPENNYKTTPPVLDSDGSFFLVSRLTVDKSRWQEGNVFSCSVMHEALHNHYTQKSLSLSLGKGGGGSGGGGSGGGGSEVQLLESGGGLVQPGGSLRLSCAASGFTFGNYDMAWVRQAPGKRPEWVSSIDTGGDITHYADSVKGRFTISRDNAKNTLYLQMNSLRPEDTAVYWCATDEEYALGPNEFDYYGQGTLVTVSS
B8: NIgG4D1A1(RS) (Fc fusion)
chain 1: DVQLQESGGGLVQAGGSLRLSCAASGLTFSRCDMGWFRQAPGKEREFVARISANGASTHYADFVKGRFTISRDNAKNTVYLQMNYLKPEDTAVYICAAARVPVTWQLYDYWGQGTQVTVSRSGPPCPPCPAPEFLGGPSVFLFPPKPKDTLMISRTPEVTCVVVDVSQEDPEVQFNWYVDGVEVHNAKTKPREEQFNSTYRVVSVLTVLHQDWLNGKEYKCKVSNKGLPSSIEKTISKAKGQPREPQVYTLPPCQEEMTKNQVSLWCLVKGFYPSDIAVEWESNGQPENNYKTTPPVLDSDGSFFLYSRLTVDKSRWQEGNVFSCSVMHEALHNHYTQKSLSLSLGK
chain 2: EVQLLESGGGLVQPGGSLRLSCAASGFTFGNYDMAWVRQAPGKRPEWVSSIDTGGDITHYADSVKGRFTISRDNAKNTLYLQMNSLRPEDTAVYWCATDEEYALGPNEFDYYGQGTLVTVSSRSGPPCPPCPAPEFLGGPSVFLFPPKPKDTLMISRTPEVTCVVVDVSQEDPEVQFNWYVDGVEVHNAKTKPREEQFNSTYRVVSVLTVLHQDWLNGKEYKCKVSNKGLPSSIEKTISKAKGQPREPQVCTLPPSQEEMTKNQVSLSCAVKGFYPSDIAVEWESNGQPENNYKTTPPVLDSDGSFFLVSRLTVDKSRWQEGNVFSCSVMHEALHNHYTQKSLSLSLGK

For this test, the target named is mixture of three Der p 2 specific recombinant human IgE clones H10, H12, P4E (human) (UniProt P01854). The test can be described thus: RBL-SX38 IgE displacement, FACS.
mixture of three Der p 2 specific recombinant human IgE clones H10, H12, P4E (human), sequence (P01854 other isoform, or with tags, fused parts or gaps): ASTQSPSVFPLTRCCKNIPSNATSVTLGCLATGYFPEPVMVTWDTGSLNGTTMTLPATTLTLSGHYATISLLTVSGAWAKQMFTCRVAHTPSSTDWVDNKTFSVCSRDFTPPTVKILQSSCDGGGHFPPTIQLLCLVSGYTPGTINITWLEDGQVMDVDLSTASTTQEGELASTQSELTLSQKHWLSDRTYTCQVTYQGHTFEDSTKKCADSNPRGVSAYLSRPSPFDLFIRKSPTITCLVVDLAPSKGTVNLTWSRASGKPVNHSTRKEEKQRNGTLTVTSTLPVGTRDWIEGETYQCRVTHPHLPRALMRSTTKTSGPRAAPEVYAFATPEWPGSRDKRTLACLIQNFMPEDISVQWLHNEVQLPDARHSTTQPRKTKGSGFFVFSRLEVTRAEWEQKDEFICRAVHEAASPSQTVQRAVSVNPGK
For B1, the EC50 is 8.8 nM and the Max effect/effect 1 µM turned out to be 93%.
For B2 the same measures were 1.6 nM and 99%.
For B3, in that order: 2 nM and 99%.
Consider B4, for which the EC50 was found to be 273 nM and the Max effect/effect 1 µM was 70%.
Regarding B5, the EC50 was found to be 1.4 nM and the Max effect/effect 1 µM amounted to 99%.
For B6, in that order: 1.6 nM and 100%.
For B7, in that order: 1.5 nM and 98%.
Consider B8, for which the EC50 stood at 1.6 nM and the Max effect/effect 1 µM came out at 97%.
